Reference: paper PMC3690534 (Molecular Cell, 2013)
Square brackets hold non-standard residues; d marks the D form. pS = N[C@@H](COP(=O)(O)O)C(=O)O

Assays:
[1] = biological target: T1, Saccharomyces cerevisiae Cdh1 WD40 domain (residues 241-550) (S. cerevisiae, UniProt P53197 241-550); test: crystal structure
T1 sequence (looked up): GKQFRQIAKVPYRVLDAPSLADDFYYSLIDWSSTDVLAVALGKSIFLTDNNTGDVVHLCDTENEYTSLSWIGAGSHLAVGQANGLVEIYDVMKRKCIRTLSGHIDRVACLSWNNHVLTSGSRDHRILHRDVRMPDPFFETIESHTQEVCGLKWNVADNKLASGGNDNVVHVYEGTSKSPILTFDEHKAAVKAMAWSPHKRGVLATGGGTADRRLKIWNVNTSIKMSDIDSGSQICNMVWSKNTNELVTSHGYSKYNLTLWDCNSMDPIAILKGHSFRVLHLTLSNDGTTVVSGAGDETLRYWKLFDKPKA

[2] = biological target: T1, Saccharomyces cerevisiae Cdh1 WD40 …; test: SAXS
[3] = biological target: T1, Saccharomyces cerevisiae Cdh1 WD40 …; test: AUC
[4] = biological target: T1, Saccharomyces cerevisiae Cdh1 WD40 …; test: SEC-MALS

B1: Acm1 central inhibitory region (residues 59-128) (domain or fragment, S. cerevisiae, UniProt Q08981 59-128, looked up)
chain: AQFMLYEETAEERNIAVHRHNEIYNNNNSVSNENNPSQVKENL[pS]PAKICPYERAFLREGGRIALKDLSVD
binding result [1]: binds

B2: Acm1^CIR-mNEN (Acm1^CIR-N90A/E91A/N92A) (domain or fragment, S. cerevisiae, UniProt Q08981 59-128, looked up)
chain: AQFMLYEETAEERNIAVHRHNEIYNNNNSVSAAANPSQVKENLSPAKICPYERAFLREGGRIALKDLSVD
binding result [2]: binds

B3: Acm1^ΔN (Acm1 residues 59-209), wild type (domain or fragment, S. cerevisiae, UniProt Q08981 59-209, looked up)
chain: AQFMLYEETAEERNIAVHRHNEIYNNNNSVSNENNPSQVKENLSPAKICPYERAFLREGGRIALKDLSVDEFKGYIQDPLTDETIPLTLPLGDKKISLPSFITPPRNSKISIFFTSKHQGQNPETKISRSTDDVSEKKVVRKLSFHVYEDE
binding result [3]: binds

B4: Acm1^ΔN-T161A (Acm1 residues 59-209, T161A) (domain or fragment, S. cerevisiae, UniProt Q08981 59-209, looked up)
chain: AQFMLYEETAEERNIAVHRHNEIYNNNNSVSNENNPSQVKENLSPAKICPYERAFLREGGRIALKDLSVDEFKGYIQDPLTDETIPLTLPLGDKKISLPSFIAPPRNSKISIFFTSKHQGQNPETKISRSTDDVSEKKVVRKLSFHVYEDE
binding result [4]: binds
